Test [1] concerns the target human ILT7 (human) (UniProt P59901). As to the kind of experiment: FACS dot plot of human PBMCs, CD304-PE against AF647-labeled antibody (lower left panel); upper left quadrant (CD304+ AF647-) 0.532.
For test [2] the target is unchanged. As to the kind of experiment: flow cytometry of human PBMCs with APC-labeled antibody at 2.5 µg/ml, histogram gated on BDCA-4+ pDCs (lower row). For orientation: A flow cytometer gives signals particle by particle.
Test [3] shares this target. As to the kind of experiment: flow cytometry dot plot of human PBMCs, BDCA-4 against APC-labeled antibody (upper row); upper left quadrant (BDCA-4+ APC-) 0.36.

Sequence of human ILT7 (human) (P59901 24-499): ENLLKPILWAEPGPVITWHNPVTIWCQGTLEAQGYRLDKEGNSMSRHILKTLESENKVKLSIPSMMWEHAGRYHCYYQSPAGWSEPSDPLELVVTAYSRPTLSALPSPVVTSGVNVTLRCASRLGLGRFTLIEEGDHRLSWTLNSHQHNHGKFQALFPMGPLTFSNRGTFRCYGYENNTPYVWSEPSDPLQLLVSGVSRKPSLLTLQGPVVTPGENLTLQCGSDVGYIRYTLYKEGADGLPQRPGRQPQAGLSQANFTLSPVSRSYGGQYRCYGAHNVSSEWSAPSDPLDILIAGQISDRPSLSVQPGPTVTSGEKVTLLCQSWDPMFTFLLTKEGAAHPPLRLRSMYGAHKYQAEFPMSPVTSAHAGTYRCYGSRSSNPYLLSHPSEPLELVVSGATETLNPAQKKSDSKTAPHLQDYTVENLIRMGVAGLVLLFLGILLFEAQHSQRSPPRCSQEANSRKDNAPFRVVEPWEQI

“afucosylated isotype control R347 (antibody)” yielded a percent of PBMCs in the CD304+ AF647+ quadrant (upper right) with human ILT7 (human) [1] of 0.0153%.
isotype control R347 (antibody) displayed a percent of pDCs (BDCA-4+ cells) in the APC-positive gate with human ILT7 (human) [2] of 0.59%. The same substance had a percent of PBMCs in the BDCA-4+ APC+ quadrant (upper right) with human ILT7 (human) [3] of 0.000963%.

The record behind these values is patent US20220144940A1.
